Reference: the supplement of paper PMC7877785
± gives the uncertainty stated by the source.

Experiment: self-splicing fitness, log relative to wild type (ln ratio); higher = more splicing; Tetrahymena group I intron in knt gene, E. coli kanamycin selection, DiMSum; sequences stand for … in CUCUCU…GGAGGGAAAAGUUAUCAGGCAUGCACCUGGUAGCUAGUCUUUAAACCAAUAGAUUGCAUCGGUUUAAAAGGCAAGACCGUCAAAUUGCGGGAAAGGGGUCAACAGCCGUUCAGUACCAAGUCUCAGGGGAAACUUUGAGAUGGCCUUGCAAAGGGUAUGGUAAUAAGCUGACGGACAUGGUCCUAACCACGCAGCCAAGUCCUAAGUCAACAGAUCUUCUGUUGAUAUGGAUGCAGUUCACAGACUAAAUGUCGGUCGGGGAAGAUGUAUUCUUCUCAUAAGAUAUAGUCGGACCUCUCCUUAAUGGGAGCUAGCGGAUGAAGUGAUGCAACACUGGAGCCGCUGGGAACUAAUUUGUAUGCGAAAGUAUAUUGAUUAGUUUUGGAGUACUCGUGGUCG
Procedure, shortened: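 A randomised library covering all eight P1ex-region intron nucleotides was built with the intron in the knt kanamycin-resistance gene on pET-22b(+) and held in E. coli BL21(DE3). Cells were grown overnight at 37°C or 30°C on LB agar, with or without 25 μg/mL kanamycin, plus 100 μg/mL carbenicillin, 50 μM IPTG and 0.2% rhamnose, and pooled colonies were amplicon-sequenced on an Illumina HiSeq 2500. DiMSum fitness is the error-weighted combination of wild-type-normalised replicate fold changes, kanamycin versus none.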

Sequence | self-splicing fitness (ln) (30 °C) | self-splicing fitness (ln) (37 °C)
AUCGAGCAAUAUUACGUGUA | -3.46 ± 0.33 | -2.11 ± 0.18
UCGUAGCAAUAUUACGUGUC | -3.24 ± 0.25 | -2.38 ± 0.25
ACGUAGCAAUAUUACGUCGC | -3.64 ± 0.35 | -1.91 ± 0.27
ACACAGCAAUAUUACGGUCC | -1.31 ± 0.073 | -0.868 ± 0.089
CACAAGCAAUAUUACGUGUC | -3.86 ± 0.15 | -1.63 ± 0.12
UCCUAGCAAUAUUACGGCGC | -2.21 ± 0.24 | -1.69 ± 0.23
CAUCAGCAAUAUUACGGAGG | -1.24 ± 0.12 | -0.916 ± 0.14
ACGGAGCAAUAUUACGGAAG | -4.44 ± 0.46 | -1.89 ± 0.46
CUAUAGCAAUAUUACGAGAG | -3.63 ± 0.23 | -2.73 ± 0.24
AGCCAGCAAUAUUACGUGGA | -3.81 ± 0.18 | -2.65 ± 0.14
AAGCAGCAAUAUUACGAGCA | -0.694 ± 0.073 | -0.435 ± 0.086
CUAGAGCAAUAUUACGACUG | 0.0552 ± 0.11 | -0.585 ± 0.14
CCAGAGCAAUAUUACGGUAA | -2.75 ± 0.22 | -2.33 ± 0.26
ACUUAGCAAUAUUACGUUGC | -3.9 ± 0.38 | -1.8 ± 0.26
AGAGAGCAAUAUUACGCAUC | -2.22 ± 0.28 | -1.91 ± 0.22
GCCGAGCAAUAUUACGGAAG | -2.65 ± 0.23 | -0.897 ± 0.15
UCAUAGCAAUAUUACGUGCA | -1.06 ± 0.082 | 0.377 ± 0.092
CUUUAGCAAUAUUACGUAUA | -3.57 ± 0.27 | -2.38 ± 0.49
GUGCAGCAAUAUUACGUACC | – | -2.41 ± 0.32
CAUGAGCAAUAUUACGAACA | – | -2 ± 0.32
GUCGAGCAAUAUUACGGUAU | -1.34 ± 0.084 | -0.615 ± 0.12
GUUAAGCAAUAUUACGCCGG | – | -0.148 ± 0.27
GAGAAGCAAUAUUACGACAG | -2.31 ± 0.19 | -3.09 ± 0.4
CUCGAGCAAUAUUACGCCAA | -3.29 ± 0.41 | -2.04 ± 0.46
UUAAAGCAAUAUUACGGAUU | -2.69 ± 0.1 | -1.74 ± 0.14

Sequence | self-splicing fitness (ln) (30 °C) | self-splicing fitness (ln) (37 °C)
CAACAGCAAUAUUACGACGU | -0.776 ± 0.042 | -0.12 ± 0.054
CGAUAGCAAUAUUACGAGAA | -2.67 ± 0.36 | -2.73 ± 0.47
UAUGAGCAAUAUUACGAUCA | -2.24 ± 0.16 | -1.27 ± 0.14
AAAGAGCAAUAUUACGAGUC | -3.41 ± 0.38 | -2.63 ± 0.45
UAUAAGCAAUAUUACGCGUC | -3.23 ± 0.28 | -1.14 ± 0.23
AAGCAGCAAUAUUACGUAGA | -2.7 ± 0.097 | -1.42 ± 0.082
GUUUAGCAAUAUUACGUUCU | -1.41 ± 0.14 | -0.628 ± 0.17
CAUUAGCAAUAUUACGGAUG | -3.67 ± 0.39 | -3.03 ± 0.25
ACGUAGCAAUAUUACGCUGU | -2.65 ± 0.17 | -2.34 ± 0.21
GGGAAGCAAUAUUACGAAUC | -0.774 ± 0.11 | -0.499 ± 0.14
AGUCAGCAAUAUUACGGCCG | -1.28 ± 0.11 | -0.527 ± 0.085
ACACAGCAAUAUUACGUCUG | -1.65 ± 0.055 | -0.547 ± 0.061
CCCUAGCAAUAUUACGGGCU | -4.04 ± 0.25 | -2.71 ± 0.18
AAGGAGCAAUAUUACGGUAC | -3.2 ± 0.47 | -2.19 ± 0.4
AGGUAGCAAUAUUACGAUUG | -3.575 ± 0.026 | -2.44 ± 0.04
GUCUAGCAAUAUUACGUUGG | -3.01 ± 0.15 | -1.86 ± 0.14
UACCAGCAAUAUUACGAAGA | -1.63 ± 0.097 | -0.519 ± 0.11
CUGAAGCAAUAUUACGGCUU | -4 ± 0.34 | -2.84 ± 0.26
UCUCAGCAAUAUUACGUUCC | -2.72 ± 0.36 | -0.417 ± 0.28
CUGUAGCAAUAUUACGGGAG | -4.83 ± 0.29 | -1.67 ± 0.13
UAUGAGCAAUAUUACGGAGG | -3.2 ± 0.17 | -2.53 ± 0.29
CGUUAGCAAUAUUACGUUAG | -0.796 ± 0.081 | -0.539 ± 0.1
CUAAAGCAAUAUUACGAACU | -5.08 ± 0.38 | -2.04 ± 0.19
CGUCAGCAAUAUUACGUUCU | -1.39 ± 0.098 | -0.462 ± 0.11
